Results on one molecule are retold here after PMC6430685 (Nature chemical biology, 2019).

No end group written: not given here. *: point of attachment. FITC = O=C1OC2(c3ccc(O)cc3Oc3cc(O)ccc32)c2ccc(NC(=S)*)cc21; Ahx = NCCCCCC(=O)O

The test concerns the target Human full-length (1-192) wild type BAX (human, UniProt Q07812 1-192). Description: fluorescence polarisation. (In fluorescence polarisation assays a small probe gives low polarisation when free and higher when bound to something large.)

Sequence of Human full-length (1-192) wild type BAX (Q07812 whole entry): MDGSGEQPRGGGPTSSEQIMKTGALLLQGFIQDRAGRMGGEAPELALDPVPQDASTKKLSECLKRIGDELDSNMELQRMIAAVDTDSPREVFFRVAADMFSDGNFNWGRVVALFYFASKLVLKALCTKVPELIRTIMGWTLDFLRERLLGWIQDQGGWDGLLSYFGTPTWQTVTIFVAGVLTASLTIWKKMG

For the molecule {FITC-Ahx}-CEALKKALRRHRFLWQRRQRA [vMIA peptide, FITC-Ahx-CEALKKALRRHRFLWQRRQRA], the binding result was “binds”.
